This note sets out measurements from paper PMC8612281, “Aromatic Dimer Dehydrogenases from Novosphingobium aromaticivorans Reduce Monoaromatic Diketones” (Applied and Environmental Microbiology, 2021).

Common to all, as to assay: purified protein
Substrate in data set [1]: COc1cc(C(O)C(CO)Oc2ccccc2OC)ccc1O
The settings on record: 0.1 mM NAD+, 0.1 μM enzyme, 25 mM Tris-HCl pH 8, 25 mM NaCl, oxidation.

Substrate in data set [2]: COc1cc(C(=O)C(C)=O)ccc1O
Type of data set: biochemical, Novosphingobium aromaticivorans. The settings on record: 0.1 mM NADH, 25 mM Tris-HCl pH 8, 25 mM NaCl, reduction of Cα ketone.

Substrate in data set [3]: COc1cc(C(O)C(C)O)ccc1O
Type of data set: biochemical, Novosphingobium aromaticivorans. The settings on record: 0.1 mM NAD+, 0.1 μM enzyme, 25 mM Tris-HCl pH 8, 25 mM NaCl, oxidation.

B1: LigD (Novosphingobium aromaticivorans DSM 12444) (protein)
chain: MQSFENEIAFITGGASGAGFGQAQVFGRAGAKIVVADVRAEAVERAVAALKAEGIVAHGLVLDITDRQAYAGAADEVEQVFGAAPTLLFNTAGVNSFGPVEDTSYDDFDWIVGVNLGGVINGMVTFVPRMIASGRPGHIVTTSSLGGLMGSALAAPYSAAKAAVINLMESYRQGLDKHGIGVSVLCPANIKSNIAEASRLRPAQFGKSGYVENEESIASLHSIHQHGMDPVELAEHVKAGIVANQLYIIPYPEAKDGLRQHFDAIVDAVLPLEADPEGARARTEALNAWAADRARVFMEKNAAQKA
B1: in the data set “purified protein [1]”, the Km stood at 70 µM and the catalytic constant (kcat) came out at 0.2 s⁻¹. Further, in the data set “purified protein [2]” (0.1 μM enzyme), the Km was 410 µM and the catalytic constant (kcat) came out at 0.02 s⁻¹.

B2: LigN (Novosphingobium aromaticivorans DSM 12444) (protein)
chain: MQNLPGKTAFVTGGASGIGLGIAKALLGAGMNVTIADIRQDHLDSAVAELGGGERVLAVKLDVTNRDQFAKAADATEAKFGKIHLLVNNAGVAVVGPTELATFADWDWVMGVNVNGTINGIVTILPRILAHGEGGHIVCTASMSALVPVAGTTIYSAGKAAVTAMMECMRPELEGRGVICSAFCPGAVQSNIADAAKTRPAELADTGYAEADKRRAAGGNFMHLYQTKEQVGERVLEGILNDELYILTHAEFLTGVEERGLATTAAVQTHLPENPEYKETFAALFRNPAITDEIARQNKLKETRKAGVEA
As to B2, in “purified protein [1]”, the Km amounted to 80 µM and the turnover number (kcat) turned out to be 0.30 s⁻¹. In addition, in “purified protein [2]” (0.1 μM enzyme), the Km came out at 310 µM and the turnover number (kcat) stood at 0.1 s⁻¹.

B3: LigL (Novosphingobium aromaticivorans DSM 12444) (protein)
chain: MGIETFAGRTAFVTGGASGIGLGIVKALARRDAFVVIADMRTDHISRALKALASAGLGESVAAVELDVTDRAAYASMARRMDEEFGGIDVLVNNAGVGVEGPILQATYPDWDFGLGVNLGGVVNGLQAMLPQMIAHGRGGHVVNTASLAATVVMPGHLAIYAAGKAAVLNLTENMRADLAGRGIGSSVLCPGFVRSNIHEAARNRPAHLREGSGFAASEQALSMRETGSEWMDPDAVGEMVADAILADQLYVITHGEFANRMRERAEALLAATPVCEMQF
For the protein B3, the figures for the Km in the data set “purified protein [1]”, in the data set “purified protein [2]” (0.01 μM enzyme) and in “purified protein [3]” were 440 µM, 3400 µM and 1530 µM, respectively. Also, the figures for the kcat in the data set “purified protein [1]”, in “purified protein [2]” (0.01 μM enzyme) and in the data set “purified protein [3]” were 0.12 s⁻¹, 1.44 s⁻¹ and 0.03 s⁻¹, respectively.
